One block for each binder: values may come before it.
Assays:
Assay in all cases: holdup assay
Design in all cases: key: below the threshold = too weak to quantify, mostly under pKd 3.1 to 4
SCRIB_1, Q14160 = molecular target: SCRIB_1, Q14160
LIN7A, O14910 = molecular target: T1, LIN7A, O14910
T1 sequence (O14910 103-200, limits assumed, looked up): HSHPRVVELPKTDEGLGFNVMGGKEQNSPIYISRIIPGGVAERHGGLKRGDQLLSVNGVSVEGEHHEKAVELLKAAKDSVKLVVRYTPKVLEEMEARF

MAST2, Q6P0Q8 = molecular target: MAST2, Q6P0Q8
MPP2, Q14168 = molecular target: T2, MPP2, Q14168
T2 sequence (Q14168 180-250, limits assumed, looked up): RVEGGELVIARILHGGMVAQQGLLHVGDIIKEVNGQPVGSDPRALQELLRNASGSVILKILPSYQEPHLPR

FRMPD4, Q14CM0 = molecular target: FRMPD4, Q14CM0
Sequence of FRMPD4, Q14CM0 (Q14CM0 67-160): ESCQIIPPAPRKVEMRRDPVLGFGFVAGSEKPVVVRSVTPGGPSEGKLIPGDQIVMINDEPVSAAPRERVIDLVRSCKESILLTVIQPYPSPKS

IL16_3, Q14005 = molecular target: IL16_3, Q14005
Sequence of IL16_3, Q14005 (Q14005 1107-1207): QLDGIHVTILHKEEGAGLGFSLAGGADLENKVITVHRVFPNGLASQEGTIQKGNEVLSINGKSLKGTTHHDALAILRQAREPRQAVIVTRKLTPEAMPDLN

APBA2_2, Q99767 = molecular target: T3, APBA2_2, Q99767
T3 sequence (Q99767 654-744, limits assumed, looked up): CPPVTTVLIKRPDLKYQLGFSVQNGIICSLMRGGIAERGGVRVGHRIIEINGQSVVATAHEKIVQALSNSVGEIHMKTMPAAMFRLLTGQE

DLG2_2, Q15700 = molecular target: DLG2_2, Q15700
Sequence of DLG2_2, Q15700 (Q15700 189-283): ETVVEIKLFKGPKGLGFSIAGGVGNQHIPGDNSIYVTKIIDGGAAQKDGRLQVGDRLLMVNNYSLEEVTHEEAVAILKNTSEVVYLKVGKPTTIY

DLG3_1, Q92796 = molecular target: T4, DLG3_1, Q92796
T4 sequence (Q92796 125-227, limits assumed, looked up): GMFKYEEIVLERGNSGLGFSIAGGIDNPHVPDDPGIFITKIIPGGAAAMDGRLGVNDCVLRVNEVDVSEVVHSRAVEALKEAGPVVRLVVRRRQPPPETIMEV

GRASP, Q7Z6J2 = molecular target: GRASP, Q7Z6J2
Sequence of GRASP, Q7Z6J2 (Q7Z6J2 96-193): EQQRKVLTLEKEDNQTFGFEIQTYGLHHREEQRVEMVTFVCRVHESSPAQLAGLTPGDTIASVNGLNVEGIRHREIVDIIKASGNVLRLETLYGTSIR

APBA1_1, Q02410 = molecular target: T5, APBA1_1, Q02410
T5 sequence (Q02410 651-752, limits assumed, looked up): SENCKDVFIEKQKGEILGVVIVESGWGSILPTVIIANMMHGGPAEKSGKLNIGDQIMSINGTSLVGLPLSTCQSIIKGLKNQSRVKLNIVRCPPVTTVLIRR

MAGI2_6, Q86UL8 = molecular target: MAGI2_6, Q86UL8
Sequence of MAGI2_6, Q86UL8 (Q86UL8 1141-1229): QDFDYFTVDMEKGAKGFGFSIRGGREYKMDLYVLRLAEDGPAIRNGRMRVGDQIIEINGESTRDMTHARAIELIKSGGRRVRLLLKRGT

MAGI2_4, Q86UL8 = molecular target: MAGI2_4, Q86UL8
Sequence of MAGI2_4, Q86UL8 (Q86UL8 772-865): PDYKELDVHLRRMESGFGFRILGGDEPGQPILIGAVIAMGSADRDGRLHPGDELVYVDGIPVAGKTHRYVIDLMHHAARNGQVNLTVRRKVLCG

GORASP2, Q9H8Y8 = molecular target: GORASP2, Q9H8Y8
PARD3B_1, Q8TEW8 = molecular target: T6, PARD3B_1, Q8TEW8
T6 sequence (Q8TEW8 196-299, limits assumed, looked up): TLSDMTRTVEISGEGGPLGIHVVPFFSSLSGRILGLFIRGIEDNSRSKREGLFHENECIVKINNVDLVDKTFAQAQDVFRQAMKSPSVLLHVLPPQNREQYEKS

SNTA1, Q13424 = molecular target: T7, SNTA1, Q13424
T7 sequence (Q13424 82-180, limits assumed, looked up): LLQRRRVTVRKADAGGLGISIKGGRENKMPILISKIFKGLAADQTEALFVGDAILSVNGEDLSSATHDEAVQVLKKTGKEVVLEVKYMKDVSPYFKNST

DFNB31_3, Q9P202 = molecular target: T8, DFNB31_3, Q9P202
T8 sequence (Q9P202 811-907, limits assumed, looked up): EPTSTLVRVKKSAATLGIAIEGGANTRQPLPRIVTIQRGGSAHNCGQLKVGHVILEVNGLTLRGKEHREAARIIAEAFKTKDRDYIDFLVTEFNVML

FRMPD1, Q5SYB0 = molecular target: T9, FRMPD1, Q5SYB0
T9 sequence (Q5SYB0 52-145, limits assumed, looked up): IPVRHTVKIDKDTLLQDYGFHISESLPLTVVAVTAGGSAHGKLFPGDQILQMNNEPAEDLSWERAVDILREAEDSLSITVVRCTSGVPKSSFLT

GRIP2_7, Q9C0E4 = molecular target: GRIP2_7, Q9C0E4
Sequence of GRIP2_7, Q9C0E4 (Q9C0E4 934-1023): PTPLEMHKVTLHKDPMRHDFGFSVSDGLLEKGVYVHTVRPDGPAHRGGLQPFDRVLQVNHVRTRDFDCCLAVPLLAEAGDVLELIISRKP

DFNB31_2, Q9P202 = molecular target: T10, DFNB31_2, Q9P202
T10 sequence (Q9P202 274-371, limits assumed, looked up): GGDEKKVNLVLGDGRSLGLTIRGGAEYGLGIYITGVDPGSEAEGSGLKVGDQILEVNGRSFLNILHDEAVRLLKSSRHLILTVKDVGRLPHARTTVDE

GRIP1_2, Q9Y3R0 = molecular target: T11, GRIP1_2, Q9Y3R0
T11 sequence (Q9Y3R0 145-248, limits assumed, looked up): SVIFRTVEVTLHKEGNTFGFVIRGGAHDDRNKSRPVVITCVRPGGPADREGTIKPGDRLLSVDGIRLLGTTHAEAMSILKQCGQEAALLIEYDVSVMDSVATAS

MAGI1_1, Q96QZ7 = molecular target: MAGI1_1, Q96QZ7
Sequence of MAGI1_1, Q96QZ7 (Q96QZ7 1-106): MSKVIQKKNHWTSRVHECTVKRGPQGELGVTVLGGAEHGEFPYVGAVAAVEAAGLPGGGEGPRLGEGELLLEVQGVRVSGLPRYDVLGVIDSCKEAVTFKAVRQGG

LNX1_2, Q8TBB1 = molecular target: LNX1_2, Q8TBB1
Sequence of LNX1_2, Q8TBB1 (Q8TBB1 371-470): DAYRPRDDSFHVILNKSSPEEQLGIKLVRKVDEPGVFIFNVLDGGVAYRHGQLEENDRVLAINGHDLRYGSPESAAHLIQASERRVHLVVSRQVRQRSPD

HTRA4, P83105 = molecular target: T12, HTRA4, P83105
T12 sequence (P83105 378-476, limits assumed, looked up): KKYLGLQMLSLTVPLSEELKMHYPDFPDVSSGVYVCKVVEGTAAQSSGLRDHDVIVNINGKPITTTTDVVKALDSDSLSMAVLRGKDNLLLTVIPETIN

HTRA1, Q92743 = molecular target: HTRA1, Q92743
Sequence of HTRA1, Q92743 (Q92743 360-477): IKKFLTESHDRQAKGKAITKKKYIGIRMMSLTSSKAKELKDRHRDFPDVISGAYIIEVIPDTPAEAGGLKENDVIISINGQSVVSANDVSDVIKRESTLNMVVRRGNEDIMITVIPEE

[1] = plain residues with an end cap or a label only (N-terminal biotin on a linker: ttds)
[2] = plain residues with an end cap or a label only (N-terminal biotin on a linker: ado-ado)

Sequence of MAST2, Q6P0Q8 (Q6P0Q8 1099-1202): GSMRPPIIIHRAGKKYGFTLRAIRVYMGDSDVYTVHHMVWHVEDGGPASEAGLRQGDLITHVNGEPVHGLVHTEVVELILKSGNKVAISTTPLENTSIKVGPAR
Sequence of SCRIB_1, Q14160 (Q14160 718-814): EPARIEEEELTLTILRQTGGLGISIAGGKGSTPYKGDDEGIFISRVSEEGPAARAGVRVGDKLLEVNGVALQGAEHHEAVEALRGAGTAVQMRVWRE

- pKd (SCRIB_1, Q14160; [1]): 5.54
- pKd (LIN7A, O14910; [1]): below the threshold
- pKd (MAST2, Q6P0Q8; [1]): 5.24
- pKd (MPP2, Q14168; [1]): below the threshold
- pKd (FRMPD4, Q14CM0; [1]): 3.77
- pKd (IL16_3, Q14005; [1]): below the threshold
- pKd (APBA2_2, Q99767; [1]): below the threshold
- pKd (DLG2_2, Q15700; [1]): 3.93
- pKd (DLG3_1, Q92796; [1]): 3.34
- pKd (GRASP, Q7Z6J2; [1]): 4.77
- pKd (APBA1_1, Q02410; [1]): below the threshold
- pKd (MAGI2_6, Q86UL8; [1]): 4.11
- pKd (MAGI2_4, Q86UL8; [1]): 3.75
- pKd (GORASP2, Q9H8Y8; [1]): 4.55
- pKd (PARD3B_1, Q8TEW8; [1]): 3.95
- pKd (SNTA1, Q13424; [1]): 3.88
- pKd (DFNB31_3, Q9P202; [1]): 4.25
- pKd (FRMPD1, Q5SYB0; [1]): below the threshold
- pKd (GRIP2_7, Q9C0E4; [1]): 3.48
- pKd (DFNB31_2, Q9P202; [1]): below the threshold
- pKd (GRIP1_2, Q9Y3R0; [1]): below the threshold
- pKd (MAGI1_1, Q96QZ7; [1]): 3.5
- pKd (LNX1_2, Q8TBB1; [1]): 3.46
- pKd (HTRA4, P83105; [1]): 4.83
- pKd (HTRA1, Q92743; [1]): 4.39
Binder: HRTCYLVTQL [ASIC3, Q9UHC3]

- pKd (SCRIB_1, Q14160; [2]): 4.21
- pKd (LIN7A, O14910; [2]): below the threshold
- pKd (MAST2, Q6P0Q8; [2]): 5.44
- pKd (MPP2, Q14168; [2]): below the threshold
- pKd (FRMPD4, Q14CM0; [2]): 4.04
- pKd (IL16_3, Q14005; [2]): below the threshold
- pKd (APBA2_2, Q99767; [2]): below the threshold
- pKd (DLG2_2, Q15700; [2]): 3.86
- pKd (DLG3_1, Q92796; [2]): below the threshold
- pKd (GRASP, Q7Z6J2; [2]): 4.62
- pKd (APBA1_1, Q02410; [2]): below the threshold
- pKd (MAGI2_6, Q86UL8; [2]): 4.27
- pKd (MAGI2_4, Q86UL8; [2]): below the threshold
- pKd (GORASP2, Q9H8Y8; [2]): below the threshold
- pKd (PARD3B_1, Q8TEW8; [2]): 3.71
- pKd (SNTA1, Q13424; [2]): 4.68
- pKd (DFNB31_3, Q9P202; [2]): 3.86
- pKd (FRMPD1, Q5SYB0; [2]): below the threshold
- pKd (GRIP2_7, Q9C0E4; [2]): below the threshold
- pKd (DFNB31_2, Q9P202; [2]): below the threshold
- pKd (GRIP1_2, Q9Y3R0; [2]): below the threshold
- pKd (MAGI1_1, Q96QZ7; [2]): 3.5
- pKd (LNX1_2, Q8TBB1; [2]): below the threshold
- pKd (HTRA4, P83105; [2]): below the threshold
- pKd (HTRA1, Q92743; [2]): 4.36
Binder: EEPEERHTEL [CES2, O00748]

- pKd (SCRIB_1, Q14160; [2]): below the threshold
- pKd (LIN7A, O14910; [2]): below the threshold
- pKd (MAST2, Q6P0Q8; [2]): 4.63
- pKd (MPP2, Q14168; [2]): below the threshold
- pKd (FRMPD4, Q14CM0; [2]): 3.97
- pKd (IL16_3, Q14005; [2]): below the threshold
- pKd (APBA2_2, Q99767; [2]): below the threshold
- pKd (DLG2_2, Q15700; [2]): below the threshold
- pKd (DLG3_1, Q92796; [2]): below the threshold
- pKd (GRASP, Q7Z6J2; [2]): below the threshold
- pKd (APBA1_1, Q02410; [2]): below the threshold
- pKd (MAGI2_6, Q86UL8; [2]): below the threshold
- pKd (MAGI2_4, Q86UL8; [2]): 3.83
- pKd (GORASP2, Q9H8Y8; [2]): 4.46
- pKd (PARD3B_1, Q8TEW8; [2]): 3.72
- pKd (SNTA1, Q13424; [2]): below the threshold
- pKd (DFNB31_3, Q9P202; [2]): 3.99
- pKd (FRMPD1, Q5SYB0; [2]): below the threshold
- pKd (GRIP2_7, Q9C0E4; [2]): 3.82
- pKd (DFNB31_2, Q9P202; [2]): below the threshold
- pKd (GRIP1_2, Q9Y3R0; [2]): below the threshold
- pKd (MAGI1_1, Q96QZ7; [2]): 3.59
- pKd (LNX1_2, Q8TBB1; [2]): 4.37
- pKd (HTRA4, P83105; [2]): 4.1
- pKd (HTRA1, Q92743; [2]): 4.36
Binder: LHLHGTGIQV [EPHA7, Q15375]

From PMC9482650, “Quantitative fragmentomics allow affinity mapping of interactomes” (Nature Communications, 2022)
